According to paper PMC5967865 (eLife, 2018):
Changes are numbered by the printed parent chain.

B1: Sb_GlyT1#6 (VHH)
VHH: QVQLVESGGGLVQAGGSLRLSCAASGFPVVYYEMYWYRQAPGKEREWVAAITSSGWYTHYADSVKGRFTISRDNAKNTVYLQMNSLKPEDTAVYYCNVKDWGASWKQYDYWGQGTQVTVS
B2: Sb_GlyT1#7 (VHH)
VHH: B1 VHH with V30Y, Y31A, T52S, W56T, Y57W, T58A, H59G, K106A, Q107Y
B3: Sb_GlyT1#5 (VHH)
VHH: QVQLVESGGGLVQAGGSLRLSCAASGFPVMNRWMAWYRQAPGKEREWVAAVASYGETTRYADSVKGRFTISRDNAKNTVYLQMNSLKPEDTAVYYCNVKDWGWWTRAYDYWGQGTQVTVS
B4: Sb_GlyT1#3 (VHH)
VHH: QVQLVESGGGLVQAGGSLRLSCAASGFPVWNNGMAWYRQAPGKEREWVAAIASRGRSTVYADSVKGRFTISRDNAKNTVYLQMNSLKPEDTAVYYCYVNVGSHYEGQGTQVTVS
B5: Sb_GlyT1#1 (VHH)
VHH: QVQLVESGGGLVQAGGSLRLSCAASGFPVYYSHMLWYRQAPGKEREWVAAIKSLGAKTWYADSVKGRFTISRDNAKNTVYLQMNSLKPEDTAVYYCTVGVGTNYYGQGTQVTVS
B6: Sb_GlyT1#2 (VHH)
VHH: B5 VHH with Y31H, S32R, H33S, L54N, K57G, Y105W
B7: Sb_ENT1#1 (VHH)
VHH: QVQLVESGGGLVQAGGSLRLSCAASGFPVEYNTMYWYRQAPGKEREWVATIESWGWFTWYADSVKGRFTISRDNAKNTVYLQMNSLKPEDTAVYYCEVGVGHNYAGRGTQVTVS
notes: concave sybody; source: purified (Ni-NTA, SEC); not shown: Myc, C-terminal, kept
B8: Sb_GlyT1#4 (VHH)
VHH: QVQLVESGGGLVQAGGSLRLSCAASGFPVYAYVMAWYRQAPGKEREWVAAIKSQGVSTYYADSVKGRFTISRDNAKNTVYLQMNSLKPEDTAVYYCYVYVGTSYTGQGTQVTVS

Key:
GFP [GFP: P42212] = assay: pull-down; nanobody or sybody displayed on ribosomes (PUREfrexSS; 10^6 mRNA of 3K1K spiked into 10^12 mRNA of the non-randomized convex sybody), pulled down with biotinylated GFP or MBP immobilized on magnetic beads; retrieved mRNA reverse transcribed and quantified by qPCR against the input mRNA
human GlyT1 = molecular target: T1, human GlyT1 (Homo sapiens, UniProt P48067); assay type: binding; details: 6 nM [3H]-Org24598, labelled compound, 4°C, LMNG; citrate pH 6.4 (buffer assignment by 'respectively'); with and without sybodies
T1 construct: gene SLC6A9; Sf9 cells; LMNG/CHS; purified with Cmpd1
T1 sequence (P48067 1-706): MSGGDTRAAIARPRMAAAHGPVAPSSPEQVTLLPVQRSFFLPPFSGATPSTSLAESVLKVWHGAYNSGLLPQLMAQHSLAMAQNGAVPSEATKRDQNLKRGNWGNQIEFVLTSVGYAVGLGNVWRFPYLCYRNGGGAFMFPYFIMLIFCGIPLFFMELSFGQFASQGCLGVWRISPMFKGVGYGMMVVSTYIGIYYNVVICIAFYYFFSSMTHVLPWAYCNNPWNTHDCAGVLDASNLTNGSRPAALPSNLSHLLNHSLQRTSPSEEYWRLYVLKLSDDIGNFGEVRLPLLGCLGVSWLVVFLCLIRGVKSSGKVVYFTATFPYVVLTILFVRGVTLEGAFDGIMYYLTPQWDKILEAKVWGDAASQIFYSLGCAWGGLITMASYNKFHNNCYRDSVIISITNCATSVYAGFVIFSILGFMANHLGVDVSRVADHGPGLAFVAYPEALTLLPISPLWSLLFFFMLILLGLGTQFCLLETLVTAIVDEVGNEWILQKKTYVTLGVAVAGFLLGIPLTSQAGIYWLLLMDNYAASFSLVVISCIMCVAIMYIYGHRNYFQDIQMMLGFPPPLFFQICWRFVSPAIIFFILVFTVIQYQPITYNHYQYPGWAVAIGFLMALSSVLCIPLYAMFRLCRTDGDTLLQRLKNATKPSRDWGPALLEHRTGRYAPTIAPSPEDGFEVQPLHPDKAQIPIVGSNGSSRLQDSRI

Human GlyT1 (human) [1] = molecular target: Human GlyT1 (human) (UniProt P48067); assay: SPR; Biacore T200, 18°C; biotinylated GlyT1 (about 300 RU) on SA sensor, sybody up to 2 µM as analyte; 20 mM Citrate pH 6.4, 150 mM NaCl, 0.004% LMNG; 50 µl/min; 1:1 model; single cycle for Sb_GlyT1#6; KD from kinetics or from equilibrium as the column says
Human GlyT1 (human) [2] = molecular target: Human GlyT1 (human) (UniProt P48067)
Human ENT1(2–456) [3] = molecular target: T2, Human ENT1(2–456) (Homo sapiens, UniProt Q99808, biotin on the Avi-tag (in vivo, co-transfected E. coli BirA); glycosylation reduced with PNGaseF and Endo-alpha-N-acetylgalactosaminidase); assay: cell-based or functional assay
T2 sequence (Q99808 2-456): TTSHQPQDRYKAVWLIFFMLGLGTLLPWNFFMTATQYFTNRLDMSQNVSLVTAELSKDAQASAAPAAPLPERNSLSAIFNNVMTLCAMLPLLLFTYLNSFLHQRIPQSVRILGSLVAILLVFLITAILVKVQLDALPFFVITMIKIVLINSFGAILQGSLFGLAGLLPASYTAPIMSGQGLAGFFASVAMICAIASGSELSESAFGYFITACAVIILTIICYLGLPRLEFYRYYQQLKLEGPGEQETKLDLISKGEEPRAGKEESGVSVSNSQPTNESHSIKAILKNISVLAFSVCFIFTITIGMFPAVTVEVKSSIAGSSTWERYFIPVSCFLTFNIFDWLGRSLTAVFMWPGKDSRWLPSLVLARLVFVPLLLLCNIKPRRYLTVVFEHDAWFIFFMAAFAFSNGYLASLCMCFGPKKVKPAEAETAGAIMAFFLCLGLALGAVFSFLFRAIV

Human ENT1(2–456) [4] = molecular target: T2, Human ENT1(2–456); assay: SPR; Biacore T200, 18°C; biotinylated ENT1 (about 1000 RU) on SA sensor, sybody up to 475 nM as analyte; 20 mM HEPES pH 7.5, 150 mM NaCl, 0.001% LMNG, 1.25 µM DOPS; 50 µl/min; 1:1 model; details: both partners purified

Row | Molecule | Kd (Human GlyT1 (human) [1]) [nM] | koff (Human GlyT1 (human) [1]) [s⁻¹] | kon (Human GlyT1 (human) [1]) [M⁻¹ s⁻¹] | SPA signal (fold increase) of [3H]-Org24598 binding at 19°C (Human GlyT1 (human) [2]) [fold] | ΔTm(SPA-TS): shift of the melting temperature of GlyT1, read by binding of [3H]-Org24598 (Human GlyT1 (human) [2]) [°C] | further results
1 | 3K1K nanobody (VHH) |  |  |  |  |  | mRNA recovery (percent of input mRNA) (GFP [GFP: P42212]): 84.6%
2 | CN(CC[C@@H](Oc1ccc(C(F)(F)F)cc1)c1ccccc1)CC(=O)O [Org24598] |  |  |  |  |  | scintillation proximity assay (SPA-TS) with [3H]-Org24598 (human GlyT1): SPA-TS analysis using the commercially available tritiated inhibitor Org24598
3 | B1 | 0.494 | 4.99e-05 | 100000 | 1.6 | 8.8 | 
4 | B2 | 9.18 | 0.000185 | 20100 | 1.8 | 10 | 
5 | B3 | 81.9 | 0.0372 | 454000 | 1.5 | 2.6 | 
6 | B4 | 154 |  |  | 1.1 | 1.7 | 
7 | B5 | 307 | 0.0577 | 188000 | 1.2 | 0.9 | 
8 | B6 | 2520 | 0.0928 | 36800 | 1.1 | 1.5 | 
9 | B7 |  |  |  |  |  | SPA signal (fold increase) of [3H]-NBTI binding at 30.1°C (Human ENT1(2–456) [3]): 7 fold; ΔTm(SPA-TS): shift of the apparent melting temperature of ENT1, read by binding of [3H]-NBTI (Human ENT1(2–456) [3]): 6.1 °C; Kd (Human ENT1(2–456) [4]): 40 nM; koff (Human ENT1(2–456) [4]): 0.00744 s⁻¹; kon (Human ENT1(2–456) [4]): 186000 M⁻¹ s⁻¹
10 | B8 | 476 |  |  | 1.5 | 2.1 | 
